Substrate in series [1]: O=C(O)c1ccc(O)cc1OCc1ccccc1
Put plainly: Michaelis-Menten constant against p-hydroxybenzoate hydroxylase (PHBH) from Pseudomonas fluorescence compared with NADPH. Conditions: Pseudomonas fluorescens.

Substrate in series [2]: O=C(O)c1ccc(O)cc1OCc1ccccc1
Put plainly: Michaelis-Menten constant against p-hydroxybenzoate hydroxylase (PHBH) from Pseudomonas fluorescence compared with p-hydroxy benzoic acid. To be noted: Pseudomonas fluorescens.

B1: p-hydroxybenzoate hydroxylase (Pseudomonas fluorescens), P00438 (protein)
chain: MKTQVAIIGAGPSGLLLGQLLHKAGIDNVILERQTPDYVLGRIRAGVLEQGMVDLLREAGVDRRMARDGLVHEGVEIAFAGQRRRIDLKRLSGGKTVTVYGQTEVTRDLMEAREACGATTVYQAAEVRLHDLQGERPYVTFERDGERLRLDCDYIAGCDGFHGISRQSIPAERLKVFERVYPFGWLGLLADTPPVSHELIYANHPRGFALCSQRSATRSRYYVQVPLTEKVEDWSDERFWTELKARLPAEVAEKLVTGPSLEKSIAPLRSFVVEPMQHGRLFLAGDAAHIVPPTGAKGLNLAASDVSTLYRLLLKAYREGRGELLERYSAICLRRIWKAERFSWWMTSVLHRFPDTDAFSQRIQQTELEYYLGSEAGLATIAENYVGLPYEEIE
Regarding B1, the Km in series [1] came to 57 µM; in series [2], 21 µM.

The record behind these values is ChEMBL document CHEMBL1127417, “Multisubstrate inhibition of 4-hydroxybenzoate 3-monooxygenase” (J Med Chem, 1994).
